Data from patent US20250136718A1 (MABWELL THERAPEUTICS, published 2025).
Where two headings read alike, the source gives them in different places.

T1: mouse TMPRSS6 expressed on HEK293T cells, MoTMPRSS6-(His)6 (UniProt Q9DBI0 1-811)
T1 chain: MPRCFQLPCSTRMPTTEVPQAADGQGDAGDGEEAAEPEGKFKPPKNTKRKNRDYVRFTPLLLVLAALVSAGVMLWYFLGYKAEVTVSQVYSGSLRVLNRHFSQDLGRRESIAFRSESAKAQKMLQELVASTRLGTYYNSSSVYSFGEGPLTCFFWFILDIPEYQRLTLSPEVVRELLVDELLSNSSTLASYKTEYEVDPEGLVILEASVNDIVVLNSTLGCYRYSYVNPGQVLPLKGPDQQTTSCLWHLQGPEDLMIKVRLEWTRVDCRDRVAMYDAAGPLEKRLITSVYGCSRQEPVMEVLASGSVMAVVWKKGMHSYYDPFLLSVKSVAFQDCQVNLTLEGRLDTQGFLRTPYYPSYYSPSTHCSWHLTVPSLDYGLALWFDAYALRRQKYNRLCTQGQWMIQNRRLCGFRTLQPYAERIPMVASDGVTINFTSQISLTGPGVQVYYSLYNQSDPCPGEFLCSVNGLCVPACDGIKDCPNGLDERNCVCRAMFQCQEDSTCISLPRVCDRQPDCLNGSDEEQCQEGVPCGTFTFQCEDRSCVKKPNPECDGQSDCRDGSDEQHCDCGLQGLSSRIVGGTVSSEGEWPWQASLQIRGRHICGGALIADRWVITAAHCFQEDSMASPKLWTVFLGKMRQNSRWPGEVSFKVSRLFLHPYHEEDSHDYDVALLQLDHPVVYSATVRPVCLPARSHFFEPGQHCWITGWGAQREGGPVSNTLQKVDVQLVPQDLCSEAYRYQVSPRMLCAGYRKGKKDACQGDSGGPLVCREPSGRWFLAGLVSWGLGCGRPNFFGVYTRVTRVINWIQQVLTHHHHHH

T2: mouse TMPRSS6 expressed on HEK293T cells, MoTMPRSS6-(His)6 (mouse, UniProt Q9DBI0 1-811)
T2 construct: HEK293T cells stably expressing the construct; also called murine TMPRSS6
T2 sequence: T1 chain

B1: humanized anti-TMPRSS6 antibody variant hzMWTx-001 Var (antibody, human IgG1, kappa, N297A, V domains shown)
VH: EVQLVQSGAEVKKPGASVKVSCKASGYTFTSYWITWVRQAPGQRLEWIGNIYPGSGSTYYNEKFKSKATITRDTSSRTAYMELSSLRSEDTAVYYCAPYDADYAMDYWGQGTLVTVSS
VL: DIQMTQSPSSLSASVGDRVTITCKASQDISNYLSWFQQKPGKAPKLLIYRANRLVEGVPSRFSGSGSGTDFTLTISSLQPEDFATYFCLQYDEFPLTFGGGTKVEIKR
notes: Human IgG1 / kappa
B2: MWTx-002 anti-TMPRSS6 monoclonal antibody (antibody, mouse IgG2b, kappa, V domains shown)
VH: EVQLQQSGAELVKPGASVKLSCTASGFNIKDYYIHWVKERTEQGLEWFGRIDPEDGESEYAPKFQGKATLTADTSSNTAYLQLSSLTSEDTAVYYCTRGDSMMVTYFDYWGQGTTLTVSS
VL: DIVMTQSHKFMSTSVGDRVSITCKASQDVSTAVAWYQQKPGQSPKLLIYWAFTRHTGVPDRFTSTGSGTDYALTISSVQAEDLALYYCQQHYRSPWTFGGGTKLEIKR
notes: Mouse monoclonal antibody from hybridoma (ATCC PTA-126760)
B3: humanized anti-TMPRSS6 antibody variant hzMWTx-002 Var (antibody, human IgG1, kappa, N297A, V domains shown)
VH: EVQLVQSGAEVKKPGASVKVSCKASGFNIKDYYIHWVRQATGQGLEWMGRIDPEDAESEYAPKFQGRVTITADTSTDTAYMELSSLRSEDTAVYYCTRGDSMMVTYFDYWGQGTLVTVSS
VL: DIQMTQSPSSLSASVGDRVTITCKASQDVSTAVAWYQQKPGKAPKLLIYWAFTRHTGVPSRFSGSGSGTDYALTISSLQPEDFATYYCQQHYRSPWTFGGGTKVEIKR
notes: Human IgG1 / kappa
B4: humanized anti-TMPRSS6 antibody variant hzMWTx-003 Var (antibody, human IgG1, kappa, L234A L235A, V domains shown)
VH: QVQLVQSGAEVKKPGASVKVSCKASGFNIEDYYMHWVRQAPGQRLEWMGRIDPEDAETTYSPKFQGRVTIIPDTSANTAYMELSSLRSEDTAVYYCARSIYLDPMDYWGQGTLVTVSS
VL: DIQMTQSPKSLSASVGDRVTITCRASQDVTTALAWYQQKPGQSPKLLIYWATTRHSGVPSRFSGSGSGTDFTLTISSLQPEDFATYYCQQHYSTPYTFGQGTKLEIKR
notes: Human IgG1 / kappa
B5: MWTx-003 anti-TMPRSS6 monoclonal antibody (antibody, mouse IgG2b, kappa, V domains shown)
VH: EVQLQQSGAELVKPGASVKLSCTASGFNIEDYYIHWVKERTEQGLEWIGRIDPEDGETTYAPQFQGKATIIPDTSSNTAYMQLSSLTSEDAAVYYCARSIYLDPMDYWGQGTSVTVSS
VL: DIVMTQSHKFMSTSVGDRVSITCKASQDVTTAVAWYQQKPGQSPKILIYWATTRHTGVPDRFTGSISGTTYILTISSVQAEDLALYYCQQHYSTPYTFGGGTKLEIKR
notes: Mouse monoclonal antibody from hybridoma (ATCC PTA-126761); The recombinant version r4K12B has the same HC and LC; also called r4K12B; recombinant MWTx-003
B6: MWTx-001 anti-TMPRSS6 monoclonal antibody (antibody, mouse IgG2a, kappa, V domains shown)
VH: QVQLQQPGAELAKPGASVKMSCKASGYTFTSYWITWVKQRPGQDLEWIGNIYPGSGSTYYNEKFKSKATLTVDTSSRTAYMQLSSLTSADSAVYYCAPYDSDYAMDYWGQGTSVTVSS
VL: DIKMTQSPSSMYASLGERVTITCKASQDINNYLSWFQQKPGKSPKTLIYRANRLVDGVPSRVSGSGSGQDYSLTISSLEYEDVGIYFCLQYDEFPLTFGAGTKLELKR
notes: Mouse monoclonal antibody from hybridoma (ATCC PTA-126759)

Key:
[1] = molecular target: T1, mouse TMPRSS6 expressed on HEK293T …; experiment: cell surface ELISA
[2] = molecular target: T2, mouse TMPRSS6 expressed on HEK293T …; experiment: summary of Example 4 (cell surface ELISA)
Method: (§1) HEK293T cells stably expressing mouse TMPRSS6 (generated by LakePharma Inc as described above, FIGS. 4J, 4L, 4N, 4P, 4R, 4T) or cynomolgus monkey (generated in house as described above, FIGS. 4K, 4M, 4O, 4Q, 4S, 4U) were fixed with methanol (100%), and washed with dPBS (Dulbecco's phosphate-buffered saline, Corning Cellgro) before incubation with various concentrations of anti-TMPRSS6 antibodies and their humanized variants diluted in BSA medium (DMEM+1% Pen/Strep+10 mM HEPES+1 mg/ml BSA (Sigma-Aldrich)). Purified mouse IgG (FIGS. 4J-4O) or Human IgG1 (FIGS. 4P-4U) was used as a control. After incubation, cells were washed with BSA medium and then incubated with goat anti-mouse (Invitrogen, FIGS. 4J-4O) or anti-human (Millipore, FIGS. 4P-4U) IgG conjugated with HRP as a 2° antibody. Finally, cells were washed with dPBS to remove unbound antibody and color developed with ELISA liquid substrate (Sigma-Aldrich), followed by stopping the reaction with addition of the same volume of […] 1M H₂SO₄. Bound antibody was measured by absorbance at OD₄₅₀ₙₘ.

[3] = molecular target: T2, mouse TMPRSS6 expressed on HEK293T …; experiment: FACS on HEK293T cells stably expressing MoTMPRSS6-(His)6
Method: (§2) Selected anti-TMPRSS6 antibodies were tested to determine whether any are capable of binding to TMPRSS6 from mouse and/or cynomolgus monkey. HEK293T cells stably expressing human TMPRSS6 (HuTMPRSS6-(His)₆) (generated by LakePharma Inc as described above), HEK293T cells stably expressing mouse TMPRSS6 (MoTMPRSS6-(His)₆) (SEQ ID NO: 98) (generated by LakePharma Inc as described above) and HEK293T cells transiently expressing cynomolgus monkey TMPRSS6 (CynoTMPRSS6-(His)₆) (SEQ ID NO: 99) (generated in house) were collected. HEK293T cells stably expressing human TMPRSS6 were used as a positive control and HEK293T cells were used as a negative control (as described above). Cells were blocked with dPBS+3% BSA before incubation with anti-TMPRSS6 antibodies diluted in dPBS+3% BSA. After incubation, cells were washed with dPBS and followed by another incubation with goat anti-mouse IgG conjugated with AlexaFluor-488 as a 2° antibody (Invitrogen). At last, cells were washed with dPBS to remove unbound antibody, re-suspended with dPBS+1 mM EDTA, and then subjected to FACS analysis using a NOVOCYTE® Flow Cytometer (ACEA Biosciences, Inc., San Diego CA). Bound antibody was determined by excitation at 488 nm and measurement of emission (FITC-A) at 530 nm. Results for these assays are shown in histogram plots in FIGS. 4A-4I.

[4] = molecular target: T2, mouse TMPRSS6 expressed on HEK293T …; experiment: cell surface ELISA on methanol-fixed HEK293T cells expressing mouse TMPRSS6
Method: as §1

[5] = molecular target: T2, mouse TMPRSS6 expressed on HEK293T …; experiment: summary of Example 4 (FACS, cell surface ELISA)
Method: as §2
HEK293T cells stably expressing mouse TMPRSS6 (generated by LakePharma Inc as described above, FIGS. 4J, 4L, 4N, 4P, 4R, 4T) or cynomolgus monkey (generated in house as described above, FIGS. 4K, 4M, 4O, 4Q, 4S, 4U) were fixed with methanol (100%), and washed with dPBS (Dulbecco's phosphate-buffered saline, Corning Cellgro) before incubation with various concentrations of anti-TMPRSS6 antibodies and their humanized variants diluted in BSA medium (DMEM+1% Pen/Strep+10 mM HEPES+1 mg/ml BSA (Sigma-Aldrich)). Purified mouse IgG (FIGS. 4J-4O) or Human IgG1 (FIGS. 4P-4U) was used as a control.

[6] = molecular target: T1, mouse TMPRSS6 expressed on HEK293T …; experiment: cell surface ELISA

Binder | EC50 [1] | binding result [2] | binding result [5] | EC50 [6] | also measured
B1 | 0.03 µg/mL | binds | – | – | –
B2 | – | – | – | – | binding result [3]: no binding
B3 | – | – | – | – | binding result [4]: no binding
B4 | 0.31 µg/mL | binds | – | – | –
B5 | – | – | binds | 0.07 µg/mL | –
B6 | – | – | binds | 0.25 µg/mL | –
